Literature values as cited in publication PMC2975797.

Biological target: von Willebrand factor (Homo sapiens) (UniProt P04275)

## Factor VIII (from UniProt P00451)
  Kd: < 500 pM
